Results as given in the supplement of paper PMC9732359.
± gives the uncertainty stated by the source.

Assay: protein stability index of a GFP-peptide fusion (yeast GPS) (PSI 1-4); higher = more stable; sorted into four equal gates, so the index is relative within each strain
In short: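 Tiled yeast protein peptides of 17 residues were each joined downstream of GFP, on plasmids that also express Cherry. The pooled library was maintained in yeast, and mid-log cultures in leucine-free medium were sorted into four equal gates on the GFP/Cherry ratio. Plasmids from every gate were amplified by PCR and sequenced on Illumina, with barcodes linking reads to strains. The protein stability index of a peptide is its gate-number-weighted read frequency summed over the gates.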

Sequence	protein stability index (doa10∆)	protein stability index (pdr5∆)	protein stability index (ubr1∆)	protein stability index (san1∆)
GGTSLFGNTSTSSAPAQ [YGL172W/NUP49]	2.17 ± 0.17	2.19 ± 0.096	2.15 ± 0.091	–
TLVEIFLERKCVHMVYE [SSN3]	1.35 ± 0.063	1.7 ± 0.071	1.75 ± 0.048	1.52 ± 0.11
EIEQPVTTFVFTGQGSQ [FAS1]	2.86 ± 0.1	2.91 ± 0.075	2.24 ± 0.066	2.49 ± 0.14
KERNSLKKLKAMNDACY [BRR2]	3.18 ± 0.086	3.16 ± 0.059	3.05 ± 0.06	2.98 ± 0.051
SQPKIGYGSNKKTKFLS [RPL32]	1.23 ± 0.15	1.52 ± 0.16	1.38 ± 0.096	–
NLLPKKSAKTAKASQEL [HTA2]	2.92 ± 0.092	3.05 ± 0.12	3.18 ± 0.048	2.87 ± 0.11
EDFLDKSYYLNTVMLQG [AAR2]	2.02 ± 0.067	2.24 ± 0.097	1.22 ± 0.052	2.24 ± 0.15
TKLNLHCVIEDDESEQI [RRI1]	2.2 ± 0.29	3.16 ± 0.17	2.65 ± 0.15	2.69 ± 0.12
HYDNTTRNSLGNVIQFI [RPO21]	2.45 ± 0.04	2.62 ± 0.043	2.86 ± 0.03	2.87 ± 0.034
KDDGAFVKFLSKKGSLE [RPL10]	3.51 ± 0.18	3.32 ± 0.14	3.25 ± 0.064	3.06 ± 0.068
KVVKAIRIYFTEKDDNK [NUT1]	2.31 ± 0.13	2.67 ± 0.07	2.97 ± 0.056	2.55 ± 0.12
SFATATCVTCHWNLPGE [SIR2]	1.64 ± 0.068	1.97 ± 0.11	1.92 ± 0.064	1.9 ± 0.084
IITKNENFLKEVFQLRI [GAL11]	1.56 ± 0.091	1.54 ± 0.067	1.26 ± 0.062	1.54 ± 0.11
IYINKSVPTNSADAPNP [RET1]	3.19 ± 0.08	3.2 ± 0.061	3.29 ± 0.052	3.31 ± 0.049
GIKYHATPPLKRFKDME [SMC1]	3.1 ± 0.1	3.25 ± 0.075	3.25 ± 0.076	2.95 ± 0.07
DYLFHLLISLNILFSLW [YLR018C/POM34]	1.61 ± 0.041	1.34 ± 0.036	1.21 ± 0.03	1.17 ± 0.072
MLMPKQERNKIHQYLFQ [RPS10B]	2.76 ± 0.29	2.88 ± 0.17	2.78 ± 0.1	2.89 ± 0.14
VGKRVRYLVGGNKIQKV [RPS7A]	1.25 ± 0.084	1.98 ± 0.18	1.7 ± 0.17	1.49 ± 0.26
ENFLKEVFQLRIFVKEI [GAL11]	1.81 ± 0.073	1.69 ± 0.058	1.52 ± 0.057	1.95 ± 0.063
TNILISPLNTTTKILGD [YML103C/NUP188]	2.15 ± 0.058	2.42 ± 0.05	1.51 ± 0.033	2.04 ± 0.086
VMMDVDSSGVNDLHHSE [RPN3]	3.34 ± 0.082	3.31 ± 0.076	3.19 ± 0.054	3.35 ± 0.066
AQDSLTVTIASSLNLED [RPB8]	1.65 ± 0.048	1.92 ± 0.044	1.89 ± 0.045	2.23 ± 0.079
NAEKTGKRQVLIRPSSK [RPS22A]	3.28 ± 0.16	3.26 ± 0.12	3.03 ± 0.075	3.13 ± 0.14
TLGNQMLSAHNIIESIA [YJR042W/NUP85]	2.33 ± 0.097	2.58 ± 0.073	2.79 ± 0.072	2.53 ± 0.14
KGDRALLVKLSKRLPLR [BRR2]	2.47 ± 0.047	2.57 ± 0.042	2.57 ± 0.042	2.34 ± 0.094
SLTKDKSIRKDTVEEKK [SIR4]	3.03 ± 0.064	3.23 ± 0.062	3.12 ± 0.069	3.1 ± 0.056
NDKSEVLKVYSMINNSN [SRB8]	2.9 ± 0.077	2.91 ± 0.07	2.63 ± 0.071	2.86 ± 0.075
KIEGCISQVSSIHAIGS [RPB7]	1.9 ± 0.11	2.48 ± 0.16	2.17 ± 0.15	2.11 ± 0.1

Sequence	protein stability index (doa10∆)	protein stability index (pdr5∆)	protein stability index (ubr1∆)	protein stability index (san1∆)
THEDLPKEVDGLEVGPV [IRR1]	3.21 ± 0.091	3.35 ± 0.11	3.18 ± 0.086	3.06 ± 0.094
RMRVSVLEKYEVIGYIA [SSN3]	1.4 ± 0.14	1.56 ± 0.2	1.15 ± 0.049	1.09 ± 0.27
QACGLVKNLSLMSCISV [RPB2]	1.49 ± 0.073	1.75 ± 0.06	2.17 ± 0.075	2.44 ± 0.083
PNTSDNNNNSNNHNMRN [SWI1]	3.12 ± 0.053	3.02 ± 0.059	3.15 ± 0.038	2.93 ± 0.046
NQLTESASHFEQYTKKI [YJL041W/NSP1]	2.28 ± 0.086	2.45 ± 0.065	2.5 ± 0.095	2.76 ± 0.082
VTPTKTEVIIRATRTQD [RPS3]	1.86 ± 0.049	1.91 ± 0.044	1.91 ± 0.033	2.57 ± 0.069
IKESSKKIKGKSIQDIV [SRP21]	3.26 ± 0.077	3.31 ± 0.092	3.14 ± 0.12	3.33 ± 0.046
ACHVEVPYVLMGQIATF [COB]	2.08 ± 0.092	1.98 ± 0.088	1.94 ± 0.066	1.87 ± 0.12
NMTTIADRNDDDEGSFA [SRB6]	3.72 ± 0.17	3.4 ± 0.3	3.44 ± 0.079	3.33 ± 0.094
SQLAKWKTAEEVSALVR [PRP8]	1.26 ± 0.17	–	–	–
IIVKDKSNDSEGDFLKS [POP1]	3.06 ± 0.3	–	–	3.14 ± 0.11
QTIEMITQIVEKDFCTS [SRB8]	2.86 ± 0.054	3.08 ± 0.058	3.02 ± 0.048	2.93 ± 0.047
TGKTLLAKAVAATIGAN [RPT4]	1.46 ± 0.074	1.75 ± 0.084	2.08 ± 0.13	1.68 ± 0.16
TLRKELEQIQVQLKDAN [YIL149C/MLP2]	2.51 ± 0.1	2.96 ± 0.093	2.24 ± 0.051	2.67 ± 0.096
EKKDDNSSKPAFSFGAK [YJL041W/NSP1]	2.3 ± 0.054	1.86 ± 0.039	2.25 ± 0.037	2.02 ± 0.06
AVALAASDLVLIVIDVV [SNU114]	2.08 ± 0.052	2.5 ± 0.06	2.13 ± 0.05	2.75 ± 0.094
RPPNGIKNFKSLLLSSS [SSN2]	1.51 ± 0.047	1.53 ± 0.047	1.48 ± 0.037	1.83 ± 0.12
MAATATDKIGRSVPAPG [FAS2]	2.82 ± 0.081	3 ± 0.076	3.01 ± 0.053	3.04 ± 0.073
IPGMSNMMNQVGEEETS [SRP54]	–	–	–	2.14 ± 0.29
TRDDLLTILMRSIMKNR [RRI2]	2.36 ± 0.082	2.61 ± 0.087	2.75 ± 0.067	2.22 ± 0.29
SRKRGGENVFLKRISDG [SIR3]	3.35 ± 0.086	3.29 ± 0.072	3.24 ± 0.037	3.07 ± 0.052
LAPELNQAIWKRGVKGV [RPL31A]	–	2.04 ± 0.22	1.57 ± 0.19	–
VGMRYFHKQQAHFWKPV [RPL28]	–	3.02 ± 0.11	2.83 ± 0.09	–
NNTNTDNVSGLTRNAPL [SNF2]	3.06 ± 0.069	3.35 ± 0.049	3.16 ± 0.037	3.05 ± 0.039
SRRPEPKKFGGKGARSR [RPS16A]	3.06 ± 0.11	3.25 ± 0.095	3.06 ± 0.052	3.25 ± 0.077
KNTEEGKALVHHYEECA [QCR6]	3.37 ± 0.067	3.29 ± 0.072	3.38 ± 0.052	3.5 ± 0.051
TAELIKELKEKEAAESP [PUP2]	2.79 ± 0.058	3.3 ± 0.094	3.22 ± 0.074	3.21 ± 0.12
